Reference: doi:10.1101/2021.11.12.468217 (bioRxiv, 2021)
One block for each binder: values may come before it.

What was measured:
[1] = target: T1, DesKC_H188E, DesKC trapped in the phosphotransferase state (Bacillus subtilis, UniProt O34757, H188E); assay: crystal structure
T1 sequence: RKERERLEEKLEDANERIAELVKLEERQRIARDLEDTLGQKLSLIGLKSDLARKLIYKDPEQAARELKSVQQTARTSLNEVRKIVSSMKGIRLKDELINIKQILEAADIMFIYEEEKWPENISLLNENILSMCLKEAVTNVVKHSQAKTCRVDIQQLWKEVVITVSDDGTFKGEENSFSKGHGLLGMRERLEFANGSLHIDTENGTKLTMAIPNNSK

SEC = target: the molecule itself; assay: SEC
[2] = target: the molecule itself

binding result [1]: binds
B1: DesR_REC-Q10A, receiver domain of DesR with Q10A, as crystallised with DesKC_H188E (domain or fragment)
chain: MISIFIAEDAQMLLGALGSLLNLEDDMEVVGKGTTGQDAVDFVKKRQPDVCIMDIEMPGKTGLEAAEELKDTGCKIIILTTFARPGYFQRAIKAGVKGYLLKDSPSEELANAIRSVMNGKRIYAPELMEDLYSEA

B2: Phosphorylated DesR-REC (P~DesRREC), wild type (domain or fragment)
chain: MISIFIAEDQQMLLGALGSLLNLEDDMEVVGKGTTGQDAVDFVKKRQPDVCIMDIEMPGKTGLEAAEELKDTGCKIIILTTFARPGYFQRAIKAGVKGYLLKDSPSEELANAIRSVMNGKRIYAPELMEDLYSEA
binding result (SEC): binds

B3: Phosphorylated DesR_REC-Q10A (domain or fragment)
chain: MISIFIAEDAQMLLGALGSLLNLEDDMEVVGKGTTGQDAVDFVKKRQPDVCIMDIEMPGKTGLEAAEELKDTGCKIIILTTFARPGYFQRAIKAGVKGYLLKDSPSEELANAIRSVMNGKRIYAPELMEDLYSEA
Kd [2]: 1440 nM
fold increase of the KD of dimerization against wild type P~RR [2]: 4 fold
